Laboratory results taken from paper PMC8509397.

Target: T1, IFNγ cellular receptor (IFNGR1 and IFNGR2) on WISH cells (human (endogenous in WISH cells)) (UniProt P15260)
T1 sequence 1: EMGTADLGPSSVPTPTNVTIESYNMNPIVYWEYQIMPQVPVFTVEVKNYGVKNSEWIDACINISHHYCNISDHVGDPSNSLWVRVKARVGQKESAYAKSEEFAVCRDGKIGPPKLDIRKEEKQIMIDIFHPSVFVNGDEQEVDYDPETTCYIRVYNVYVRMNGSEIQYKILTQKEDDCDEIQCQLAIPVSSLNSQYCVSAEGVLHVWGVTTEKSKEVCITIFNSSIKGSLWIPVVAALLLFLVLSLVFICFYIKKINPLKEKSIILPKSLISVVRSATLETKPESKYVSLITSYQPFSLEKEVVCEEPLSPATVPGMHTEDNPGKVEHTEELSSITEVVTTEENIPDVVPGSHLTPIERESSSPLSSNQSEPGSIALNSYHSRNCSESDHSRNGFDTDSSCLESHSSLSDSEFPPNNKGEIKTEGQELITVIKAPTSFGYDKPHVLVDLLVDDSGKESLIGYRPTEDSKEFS
T1 sequence 2: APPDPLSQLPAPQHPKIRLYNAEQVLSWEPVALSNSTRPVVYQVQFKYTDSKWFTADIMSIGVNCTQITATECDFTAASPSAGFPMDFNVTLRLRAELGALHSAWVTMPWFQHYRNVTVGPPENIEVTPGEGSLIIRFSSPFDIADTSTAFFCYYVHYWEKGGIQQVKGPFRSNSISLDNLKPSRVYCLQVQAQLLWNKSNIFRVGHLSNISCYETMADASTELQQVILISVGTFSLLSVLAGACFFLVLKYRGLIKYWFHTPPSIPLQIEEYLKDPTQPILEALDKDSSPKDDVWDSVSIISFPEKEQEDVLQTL

antiproliferative activity of IFNγ (IDO induction, modified kynurenine bioassay) on WISH cells, 100 IU/mL IFNγ with LMWH (Fraxiparine): LMWH concentration that reduces the activity to 50% of control: 35 IU/mL
inhibition of IDO induction by 100 IU/mL IFNγ on WISH cells with LMWH (Fraxiparine) 1.5 to 150 anti-Xa IU/mL; highest value at 150 IU/mL: < 80%
Substance: recombinant interferon-gamma (IFNγ) (from UniProt P01579 24-161) (ligand)
